We go through 3 substances from patent US7510715.

Read-outs that look alike come from different tables or passages of the source.

Test [1] has as its target human CCR5 on cells (CEM.NKR-CCR5 transfectants; PM1 T cells; PBMCs; macrophages) (human) (UniProt P51681). The test can be described thus: cell-based or functional assay.
For test [2] the target is unchanged.
Test [3] has the same target. The experiment in a line: flow cytometry, FITC-2D7 on PM1 cells after RANTES + MIP-1β (1 µg/mL each, 2 hours at 37° C.); isotype control subtracted. (In general: In flow cytometry, cells or beads pass a laser one at a time.)
The target is the same in test [4]. The test can be described thus: flow cytometry, FITC-2D7 on PM1 cells, no treatment; isotype control subtracted.
For test [5], the target named is human CD4 on PM1 cells (human) (UniProt P01730). The experiment in a line: flow cytometry, FITC-Leu 3a on PM1 cells, no treatment; isotype control subtracted.
The target is the same in test [6]. The experiment in a line: flow cytometry, FITC-Leu 3a on PM1 cells after RANTES + MIP-1β (1 µg/mL each, 2 hours at 37° C.); isotype control subtracted.
The target is the same in test [7].

As to “recombinant Plasmodium falciparum cyclophilin (PfCyp19) (enzyme)”, the Inhibition, % of 12E1(JR-FL)/PM1 fusion, P falciparum cyclophilin at 10 µg/mL in test [1] came out at 0%.

For “FITC-conjugated 2D7 (anti-CCR5; Pharmingen) (antibody)”, the ΔMFC in test [2] was 104 ΔMFC; in test [3], 35 ΔMFC; in test [4] it was 119 ΔMFC.

Turning to “FITC-conjugated Leu 3a (anti-hCD4; Becton Dickinson) (antibody)”, the ΔMFC in test [5] is 112 ΔMFC; in test [6], 109 ΔMFC; in test [7], 105 ΔMFC.
